The text below walks through data of PMC4200421, “A distinct tethering step is vital for vacuole membrane fusion” (eLife, 2014).

In the assay the target is T1, Vam3p (vacuolar Qa-SNARE), on 3Q-SNARE proteoliposomes (S. cerevisiae, UniProt Q12241 1-283).
T1 construct: Vam3p, vacuolar Qa-SNARE of Saccharomyces cerevisiae; Bait of the co-immunoprecipitation (anti-Vam3p antibody); In every experiment Vam3p stood on the same proteoliposomes as the Qb-SNARE Vti1p and the Qc-SNARE Vam7p (3Q-RPLs); Constructs are in cited work; also called 3Q-RPLs; 3Q-SNAREs
T1 sequence (looked up): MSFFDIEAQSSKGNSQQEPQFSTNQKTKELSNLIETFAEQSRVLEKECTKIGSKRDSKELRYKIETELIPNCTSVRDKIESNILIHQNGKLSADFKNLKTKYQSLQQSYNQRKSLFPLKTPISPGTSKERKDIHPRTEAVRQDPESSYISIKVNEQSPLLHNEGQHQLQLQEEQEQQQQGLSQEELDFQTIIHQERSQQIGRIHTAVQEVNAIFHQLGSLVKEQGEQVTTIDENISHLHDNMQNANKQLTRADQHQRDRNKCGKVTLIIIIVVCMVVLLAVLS
Description: co-IP; 1R-RPLs, or soluble Nyv1p at 100 nM, with 3Q-RPLs (Vam3p, Vti1p, Vam7p); 40 µl reaction 40 min at 27°C with HOPS (100 nM) or its buffer; diluted 10-fold in RIPA buffer with affinity-purified anti-Vam3p antibody (50 µg/ml) and 10 µM GST-Nyv1p; protein A magnetic beads, 2 hr room temperature; immunoblot with anti-Nyv1p. Particulars: both partners purified. (In general: A western blot detects proteins with antibodies after separation by electrophoresis.)

B1: Soluble Nyv1p (sR), Nyv1(Δtm), Nyv1p(1-231) (domain or fragment, S. cerevisiae, UniProt Q12255 1-231, looked up)
chain: MKRFNVSYVEVIKNGETISSCFQPFQKNENYGTITSANEQITPVIFHNLIMDMVLPKVVPIKGNKVTKMSMNLIDGFDCFYSTDDHDPKTVYVCFTLVDMPKILPIRILSGLQEYESNATNELLSSHVGQILDSFHEELVEYRNQTLNSSGNGQSSNGNGQNTISDIGDATEDQIKDVIQIMNDNIDKFLERQERVSLLVDKTSQLNSSSNKFRRKAVNIKEIMWWQKVKN
notes: Nyv1p of Saccharomyces cerevisiae without its transmembrane anchor (Δtm); the methods name only Nyv1(Δtm); also called sNyv1p; recombinant soluble domain of Nyv1p; source: purified as GST-TEVsite-Nyv1(Δtm) as described (Thorngren et al., 2004), cleaved with TEV protease prior to use; not shown: GST, N-terminal, cleaved
As to B1, the binding result is reported as “binds”.

B2: Nyv1p (vacuolar R-SNARE), membrane-anchored, on R-SNARE proteoliposomes (natural protein, S. cerevisiae, UniProt Q12255 1-253, looked up)
chain: MKRFNVSYVEVIKNGETISSCFQPFQKNENYGTITSANEQITPVIFHNLIMDMVLPKVVPIKGNKVTKMSMNLIDGFDCFYSTDDHDPKTVYVCFTLVDMPKILPIRILSGLQEYESNATNELLSSHVGQILDSFHEELVEYRNQTLNSSGNGQSSNGNGQNTISDIGDATEDQIKDVIQIMNDNIDKFLERQERVSLLVDKTSQLNSSSNKFRRKAVNIKEIMWWQKVKNITLLTFTIILFVSAAFMFFYLW
notes: Nyv1p, vacuolar R-SNARE of Saccharomyces cerevisiae, membrane-anchored form; Schwartz and Merz, 2009; Zucchi and Zick, 2011 for the SNARE constructs; Exchanged into octylglucoside buffer before reconstitution; also called wild-type Nyv1p; 1R; source: pure recombinant protein, purified as described (cited work), reconstituted into proteoliposomes by detergent dialysis
With B2, the binding result is reported as “binds”.
